Measured values as given in patent US20230399377A1.
Where two headings read alike, the source gives them in different places.

How the values were obtained:
[1] = target: recombinant human VEGF-A165 (human) (UniProt P15692); experiment: SPR Biacore; Fc fusion captured on anti-human IgG (Fc) antibody chip, VEGF-A165 as analyte, 1:1 model
[2] = target: recombinant human VEGF-A165 (human) (UniProt P15692)
human PlGF (human) [3] = target: T1, human PlGF (human) (UniProt P49763); experiment: SPR Biacore; Fc fusion captured on anti-human IgG (Fc) antibody chip, PlGF as analyte, 1:1 model
T1 sequence (looked up): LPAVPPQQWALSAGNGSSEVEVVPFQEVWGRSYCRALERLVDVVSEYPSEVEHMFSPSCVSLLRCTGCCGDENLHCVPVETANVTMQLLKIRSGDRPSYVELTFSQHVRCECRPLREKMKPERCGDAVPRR

[4] = target: recombinant human VEGF-A165 (human) (UniProt P15692); remark: listed apart in the source
[5] = target: T2, human VEGF-B 167/189 (human) (UniProt P49765); experiment: SPR Biacore; Fc fusion captured on anti-human IgG (Fc) antibody chip, VEGF-B167/189 as analyte, 1:1 model
T2 sequence (looked up): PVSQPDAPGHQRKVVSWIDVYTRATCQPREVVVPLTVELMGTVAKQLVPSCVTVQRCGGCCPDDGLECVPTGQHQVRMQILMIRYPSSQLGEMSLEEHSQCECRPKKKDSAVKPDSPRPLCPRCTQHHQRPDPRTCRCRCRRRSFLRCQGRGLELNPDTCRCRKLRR

human PlGF (human) [6] = target: T1, human PlGF (human); experiment: SPR Biacore; Fc fusion captured on anti-human IgG (Fc) antibody chip, PlGF as analyte, 1:1 model; remark: listed apart in the source
[7] = target: recombinant human VEGF-A165 (human) (UniProt P15692); remark: listed apart in the source
[8] = target: recombinant human VEGF-C (human) (UniProt P49767)
[9] = target: recombinant human VEGF-C (human) (UniProt P49767); remark: listed apart in the source
[10] = target: recombinant human VEGF-D (human) (UniProt O43915)
[11] = target: recombinant human VEGF-C (human) (UniProt P49767); remark: listed apart in the source

Sequence of aflibercept (Fc fusion) (chain): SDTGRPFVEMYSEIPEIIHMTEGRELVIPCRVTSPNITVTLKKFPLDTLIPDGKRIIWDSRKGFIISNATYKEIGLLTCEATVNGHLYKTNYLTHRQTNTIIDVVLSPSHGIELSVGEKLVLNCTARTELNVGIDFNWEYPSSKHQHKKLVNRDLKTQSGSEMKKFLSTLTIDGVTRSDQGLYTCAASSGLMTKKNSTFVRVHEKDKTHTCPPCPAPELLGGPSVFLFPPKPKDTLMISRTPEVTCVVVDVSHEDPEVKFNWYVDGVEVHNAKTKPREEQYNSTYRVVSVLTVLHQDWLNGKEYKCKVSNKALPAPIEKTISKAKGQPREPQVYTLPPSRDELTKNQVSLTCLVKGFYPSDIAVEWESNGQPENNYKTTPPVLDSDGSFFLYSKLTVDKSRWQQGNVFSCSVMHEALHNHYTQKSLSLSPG
Sequence of recombinant human VEGF-C (human) (P49767 103-227 limits assumed): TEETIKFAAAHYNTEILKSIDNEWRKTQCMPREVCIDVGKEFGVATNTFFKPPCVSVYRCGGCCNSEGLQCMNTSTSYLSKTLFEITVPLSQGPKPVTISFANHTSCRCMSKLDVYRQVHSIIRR
Sequence of recombinant human VEGF-A165 (human) (P15692 other isoform, or with tags, fused parts or gaps limits assumed): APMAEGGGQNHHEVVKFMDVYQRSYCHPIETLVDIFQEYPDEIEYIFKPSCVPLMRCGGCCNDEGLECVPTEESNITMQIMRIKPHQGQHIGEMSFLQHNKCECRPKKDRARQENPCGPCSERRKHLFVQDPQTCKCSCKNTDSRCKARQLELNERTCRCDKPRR
Sequence of recombinant human VEGF-D (human) (O43915 93-201 limits assumed): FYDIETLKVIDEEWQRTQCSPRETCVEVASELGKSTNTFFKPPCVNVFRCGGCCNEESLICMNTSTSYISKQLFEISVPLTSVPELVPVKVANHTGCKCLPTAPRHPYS

Substance: aflibercept (Fc fusion)
- Kd [1]: 0.0336 nM
- IC50, inhibition of VEGF-A165 (100 ng/mL on the sheet) mediated HLEC proliferation, alamarBlue reduction [2]: 1.18 nM
- Kd (human PlGF (human) [3]): 0.48 nM
- IC50, inhibition of VEGF-A165 (60 ng/mL) mediated VEGFR-2 signaling, VEGFR-2-NFAT-RE luciferase reporter cells [4]: 0.41 nM
- Kd [5]: 0.0173 nM
- Kd (human PlGF (human) [6]): 0.484 nM
- IC50, inhibition of VEGF-A165 (60 ng/mL) mediated VEGFR-2 signaling, VEGFR-2-NFAT-RE luciferase reporter cells [7]: 0.39 nM

Substance: recombinant human VEGFR-3 containing 7 extracellular domains (from UniProt P35916 25-775) (receptor)
- IC50, inhibition of VEGF-C (25 ng/mL) mediated VEGFR-2 signaling, VEGFR-2-NFAT-RE luciferase reporter cells [8]: 0.0093 nM
- IC50, MIXED STIMULUS VEGF-C (25 ng/mL) + VEGF-D (150 ng/mL): inhibition of HLEC proliferation, alamarBlue reduction; one IC50 for the mixture [9]: 1.26 nM
- IC50, MIXED STIMULUS VEGF-C (25 ng/mL) + VEGF-D (150 ng/mL): inhibition of HLEC proliferation, alamarBlue reduction; one IC50 for the mixture [10]: 1.26 nM
- IC50, inhibition of VEGF-C (40 ng/mL on the sheet) mediated HLEC proliferation, alamarBlue reduction [11]: 1.47 nM
